Laboratory results reported in IntAct's records for PubMed 15150238.

B1: DnaA regulatory inactivator Hda (Escherichia coli (strain K12)), P69931 (parent)
chain: MNTPAQLSLPLYLPDDETFASFWPGDNSSLLAALQNVLRQEHSGYIYLWAREGAGRSHLLHAACAELSQRGDAVGYVPLDKRTWFVPEVLDGMEHLSLVCIDNIECIAGDELWEMAIFDLYNRILESGKTRLLITGDRPPRQLNLGLPDLASRLDWGQIYKLQPLSDEDKLQALQLRARLRGFELPEDVGRFLLKRLDREMRTLFMTLDQLDRASITAQRKLTIPFVKEILKL

Legend:
dpo3b_ecoli dnaN, P0A988 [1] = variants of: B1; conditions: with dpo3b_ecoli dnaN
dpo3b_ecoli dnaN, P0A988 [2] = variants of: B1; conditions: with dpo3b_ecoli dnaN; remark: listed apart in the source

Chain of dpo3b_ecoli dnaN, P0A988 (P0A988 whole entry): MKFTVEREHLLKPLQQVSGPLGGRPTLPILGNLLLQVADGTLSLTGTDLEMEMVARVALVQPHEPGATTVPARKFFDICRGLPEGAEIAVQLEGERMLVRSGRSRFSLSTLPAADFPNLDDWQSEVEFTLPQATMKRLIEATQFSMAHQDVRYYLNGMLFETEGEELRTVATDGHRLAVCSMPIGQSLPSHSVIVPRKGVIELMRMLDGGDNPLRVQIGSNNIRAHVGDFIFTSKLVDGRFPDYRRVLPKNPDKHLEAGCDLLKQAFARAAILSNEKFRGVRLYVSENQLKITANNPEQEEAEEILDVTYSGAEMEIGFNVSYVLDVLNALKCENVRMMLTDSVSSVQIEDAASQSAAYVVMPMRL

| effect of a mutation on the interaction (dpo3b_ecoli dnaN, P0A988 [1]) | effect of a mutation on the interaction (dpo3b_ecoli dnaN, P0A988 [2]) | Variant |
| --- | --- | --- |
| decreasing interaction | disrupting interaction | MNTPAQASAPLYLPDDETFASFWPGDNSSLLAALQNVLRQEHSGYIYLWAREGAGRSHLLHAACAELSQRGDAVGYVPLDKRTWFVPEVLDGMEHLSLVCIDNIECIAGDELWEMAIFDLYNRILESGKTRLLITGDRPPRQLNLGLPDLASRLDWGQIYKLQPLSDEDKLQALQLRARLRGFELPEDVGRFLLKRLDREMRTLFMTLDQLDRASITAQRKLTIPFVKEILKL [L7A;L9A] |
| decreasing interaction | disrupting interaction | MNTPAQLSAALYLPDDETFASFWPGDNSSLLAALQNVLRQEHSGYIYLWAREGAGRSHLLHAACAELSQRGDAVGYVPLDKRTWFVPEVLDGMEHLSLVCIDNIECIAGDELWEMAIFDLYNRILESGKTRLLITGDRPPRQLNLGLPDLASRLDWGQIYKLQPLSDEDKLQALQLRARLRGFELPEDVGRFLLKRLDREMRTLFMTLDQLDRASITAQRKLTIPFVKEILKL [L9A;P10A] |
